Source: the supplement of paper PMC6379048

Key:
Assay in all cases: Kd (EC50 corrected by depletion factor)
ZCCHC24 = ZCCHC24 (UniProt Q8N2G6)
Summary of the method: (§1)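 Free RNA oligos (0 nM to 30 μM) competed for 1 h at 4°C in HEK293-FT lysate (2.5 mg protein/well) before a 30 min, 4°C pulldown with the same oligos on NHS-Sepharose beads. Bound proteins were quantified by label-free LC-MS/MS and normalised to the control. Kd was found by multiplying EC50, from a four-parameter log-logistic fit, by a protein-dependent depletion factor.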

LSM1 = target: T1, LSM1 (UniProt O15116)
T1 sequence: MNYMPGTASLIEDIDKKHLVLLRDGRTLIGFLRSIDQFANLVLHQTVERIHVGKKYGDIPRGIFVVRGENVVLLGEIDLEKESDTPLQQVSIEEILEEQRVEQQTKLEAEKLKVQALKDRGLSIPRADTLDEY
Summary of the method: as §1

HNRNPD = target: T2, HNRNPD (UniProt Q14103)
T2 sequence: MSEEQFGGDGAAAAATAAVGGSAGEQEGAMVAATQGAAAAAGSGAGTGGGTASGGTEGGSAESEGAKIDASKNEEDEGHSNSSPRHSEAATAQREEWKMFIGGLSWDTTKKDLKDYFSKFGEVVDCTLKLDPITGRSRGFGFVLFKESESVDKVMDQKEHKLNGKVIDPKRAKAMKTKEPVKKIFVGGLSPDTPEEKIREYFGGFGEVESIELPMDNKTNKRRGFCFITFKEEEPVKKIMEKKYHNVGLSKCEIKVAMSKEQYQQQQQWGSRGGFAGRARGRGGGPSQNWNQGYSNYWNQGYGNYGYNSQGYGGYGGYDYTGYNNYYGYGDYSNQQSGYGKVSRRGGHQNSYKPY
Summary of the method: as §1

LSM3 = LSM3 (UniProt P62310)
Summary of the method: as §1

HNRNPDL = target: T3, HNRNPDL (UniProt O14979)
T3 sequence: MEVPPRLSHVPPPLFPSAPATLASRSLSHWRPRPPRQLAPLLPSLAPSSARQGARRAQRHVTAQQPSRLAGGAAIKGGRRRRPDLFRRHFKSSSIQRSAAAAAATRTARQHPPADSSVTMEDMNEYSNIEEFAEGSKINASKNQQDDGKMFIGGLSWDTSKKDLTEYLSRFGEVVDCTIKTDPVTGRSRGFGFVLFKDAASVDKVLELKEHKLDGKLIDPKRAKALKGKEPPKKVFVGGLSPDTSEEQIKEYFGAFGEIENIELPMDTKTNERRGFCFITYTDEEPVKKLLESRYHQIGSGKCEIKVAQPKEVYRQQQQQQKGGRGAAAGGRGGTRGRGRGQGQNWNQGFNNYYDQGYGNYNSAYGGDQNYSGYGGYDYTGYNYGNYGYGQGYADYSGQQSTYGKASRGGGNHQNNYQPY
Summary of the method: as §1

RBM7 = target: T4, RBM7 (UniProt Q9Y580)
T4 sequence: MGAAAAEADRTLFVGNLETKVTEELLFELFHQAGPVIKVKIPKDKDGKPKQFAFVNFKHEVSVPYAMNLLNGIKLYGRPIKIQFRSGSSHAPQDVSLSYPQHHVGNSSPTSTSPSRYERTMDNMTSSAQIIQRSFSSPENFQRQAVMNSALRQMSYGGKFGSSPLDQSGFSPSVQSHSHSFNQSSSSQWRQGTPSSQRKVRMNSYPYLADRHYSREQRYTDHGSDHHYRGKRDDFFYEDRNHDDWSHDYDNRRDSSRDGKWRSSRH
Summary of the method: as §1

MSI2 = MSI2 (UniProt Q96DH6)
Summary of the method: as §1

NCL = NCL (UniProt P19338)
Summary of the method: as §1

FUBP3 = target: T5, FUBP3 (UniProt Q96I24)
T5 sequence: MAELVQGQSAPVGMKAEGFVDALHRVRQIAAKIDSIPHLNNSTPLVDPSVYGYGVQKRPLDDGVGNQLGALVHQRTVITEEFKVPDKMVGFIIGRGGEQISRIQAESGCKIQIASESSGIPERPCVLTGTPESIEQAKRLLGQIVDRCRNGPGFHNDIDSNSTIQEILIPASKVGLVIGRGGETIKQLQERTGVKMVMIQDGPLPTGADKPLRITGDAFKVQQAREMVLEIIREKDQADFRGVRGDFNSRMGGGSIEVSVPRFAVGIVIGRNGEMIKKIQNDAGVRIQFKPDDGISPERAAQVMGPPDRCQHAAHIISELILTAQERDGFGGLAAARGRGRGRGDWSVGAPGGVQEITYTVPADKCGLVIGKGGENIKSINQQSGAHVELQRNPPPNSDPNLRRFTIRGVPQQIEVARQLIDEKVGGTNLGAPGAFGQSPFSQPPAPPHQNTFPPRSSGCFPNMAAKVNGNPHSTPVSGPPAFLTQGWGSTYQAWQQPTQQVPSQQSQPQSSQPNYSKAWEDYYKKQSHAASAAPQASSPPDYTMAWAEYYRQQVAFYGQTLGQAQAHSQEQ
Summary of the method: as §1

XRN1 = XRN1 (UniProt Q8IZH2)
Summary of the method: as §1

RBM4 = target: T6, RBM4 (UniProt Q9BWF3)
T6 sequence: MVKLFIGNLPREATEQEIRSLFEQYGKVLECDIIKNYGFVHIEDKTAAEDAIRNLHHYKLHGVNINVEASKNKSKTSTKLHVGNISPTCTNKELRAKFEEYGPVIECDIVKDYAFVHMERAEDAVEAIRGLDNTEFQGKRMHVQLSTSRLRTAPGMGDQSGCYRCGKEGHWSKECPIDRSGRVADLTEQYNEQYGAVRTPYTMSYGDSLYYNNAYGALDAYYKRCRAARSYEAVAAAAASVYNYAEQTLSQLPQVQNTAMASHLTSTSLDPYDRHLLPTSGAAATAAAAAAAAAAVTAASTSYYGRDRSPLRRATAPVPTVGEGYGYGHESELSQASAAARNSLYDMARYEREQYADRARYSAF
Summary of the method: as §1

LRPPRC = LRPPRC (UniProt P42704)
Summary of the method: as §1

ZCCHC24, sequence (Q8N2G6 whole entry): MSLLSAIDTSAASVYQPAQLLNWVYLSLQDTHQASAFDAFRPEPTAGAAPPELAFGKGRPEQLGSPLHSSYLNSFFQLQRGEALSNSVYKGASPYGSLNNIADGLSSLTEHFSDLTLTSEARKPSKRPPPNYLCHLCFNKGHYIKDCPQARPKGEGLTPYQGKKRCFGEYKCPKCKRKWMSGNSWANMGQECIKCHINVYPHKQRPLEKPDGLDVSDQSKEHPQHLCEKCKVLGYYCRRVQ
MSI2, sequence (Q96DH6 whole entry): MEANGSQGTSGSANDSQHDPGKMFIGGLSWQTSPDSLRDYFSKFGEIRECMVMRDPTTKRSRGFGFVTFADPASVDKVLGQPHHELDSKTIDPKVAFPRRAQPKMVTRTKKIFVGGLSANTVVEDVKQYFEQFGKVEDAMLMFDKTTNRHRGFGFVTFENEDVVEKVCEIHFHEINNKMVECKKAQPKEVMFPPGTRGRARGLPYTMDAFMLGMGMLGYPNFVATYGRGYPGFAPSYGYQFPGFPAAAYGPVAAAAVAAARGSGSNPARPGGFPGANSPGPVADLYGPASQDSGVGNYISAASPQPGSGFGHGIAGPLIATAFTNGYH
XRN1, sequence (Q8IZH2 whole entry): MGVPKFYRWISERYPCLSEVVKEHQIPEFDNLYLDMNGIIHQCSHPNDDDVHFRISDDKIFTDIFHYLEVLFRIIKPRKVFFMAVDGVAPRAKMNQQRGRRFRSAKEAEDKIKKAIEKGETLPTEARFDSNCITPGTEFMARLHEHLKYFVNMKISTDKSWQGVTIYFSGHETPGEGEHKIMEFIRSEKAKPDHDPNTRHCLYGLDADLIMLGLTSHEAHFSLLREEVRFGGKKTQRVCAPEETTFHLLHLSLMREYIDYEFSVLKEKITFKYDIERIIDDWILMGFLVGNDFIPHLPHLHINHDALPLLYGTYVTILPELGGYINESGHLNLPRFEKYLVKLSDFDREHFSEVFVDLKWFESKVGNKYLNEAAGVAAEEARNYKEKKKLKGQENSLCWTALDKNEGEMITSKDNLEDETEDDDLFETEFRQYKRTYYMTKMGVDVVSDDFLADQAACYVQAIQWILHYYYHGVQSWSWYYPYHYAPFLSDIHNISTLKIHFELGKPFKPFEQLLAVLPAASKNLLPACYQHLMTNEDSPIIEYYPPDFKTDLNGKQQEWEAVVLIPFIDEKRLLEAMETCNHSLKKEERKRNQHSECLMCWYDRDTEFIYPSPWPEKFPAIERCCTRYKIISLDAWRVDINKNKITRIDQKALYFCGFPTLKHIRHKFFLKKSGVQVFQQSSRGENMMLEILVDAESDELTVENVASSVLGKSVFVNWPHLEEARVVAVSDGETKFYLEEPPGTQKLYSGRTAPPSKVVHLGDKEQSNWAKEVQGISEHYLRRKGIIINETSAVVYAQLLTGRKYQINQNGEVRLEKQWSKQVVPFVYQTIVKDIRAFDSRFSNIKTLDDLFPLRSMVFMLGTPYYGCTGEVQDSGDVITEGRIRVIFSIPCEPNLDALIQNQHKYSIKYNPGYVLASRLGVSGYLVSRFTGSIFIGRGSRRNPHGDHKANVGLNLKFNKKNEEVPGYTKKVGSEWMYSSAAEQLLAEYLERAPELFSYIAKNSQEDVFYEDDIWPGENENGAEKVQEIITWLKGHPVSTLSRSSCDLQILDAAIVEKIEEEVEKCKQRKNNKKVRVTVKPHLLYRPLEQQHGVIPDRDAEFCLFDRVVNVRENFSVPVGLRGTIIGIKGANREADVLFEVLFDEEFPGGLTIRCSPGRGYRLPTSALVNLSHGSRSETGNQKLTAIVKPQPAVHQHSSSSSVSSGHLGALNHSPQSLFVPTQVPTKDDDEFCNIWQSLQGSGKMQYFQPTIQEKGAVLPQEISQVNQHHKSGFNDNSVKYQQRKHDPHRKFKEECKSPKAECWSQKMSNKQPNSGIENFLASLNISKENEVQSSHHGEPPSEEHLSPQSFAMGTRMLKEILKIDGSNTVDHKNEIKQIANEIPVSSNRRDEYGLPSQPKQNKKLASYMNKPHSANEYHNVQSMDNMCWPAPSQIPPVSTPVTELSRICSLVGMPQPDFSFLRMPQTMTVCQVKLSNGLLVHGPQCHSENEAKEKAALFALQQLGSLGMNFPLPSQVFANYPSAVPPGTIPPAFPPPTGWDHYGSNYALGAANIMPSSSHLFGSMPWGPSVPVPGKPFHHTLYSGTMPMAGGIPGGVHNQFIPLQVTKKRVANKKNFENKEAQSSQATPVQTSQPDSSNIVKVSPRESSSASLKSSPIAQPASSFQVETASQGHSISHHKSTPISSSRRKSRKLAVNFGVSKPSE
LSM3, sequence (P62310 whole entry): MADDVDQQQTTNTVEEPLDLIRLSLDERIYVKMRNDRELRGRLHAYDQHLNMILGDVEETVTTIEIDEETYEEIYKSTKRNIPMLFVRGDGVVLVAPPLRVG
NCL, sequence (P19338 whole entry): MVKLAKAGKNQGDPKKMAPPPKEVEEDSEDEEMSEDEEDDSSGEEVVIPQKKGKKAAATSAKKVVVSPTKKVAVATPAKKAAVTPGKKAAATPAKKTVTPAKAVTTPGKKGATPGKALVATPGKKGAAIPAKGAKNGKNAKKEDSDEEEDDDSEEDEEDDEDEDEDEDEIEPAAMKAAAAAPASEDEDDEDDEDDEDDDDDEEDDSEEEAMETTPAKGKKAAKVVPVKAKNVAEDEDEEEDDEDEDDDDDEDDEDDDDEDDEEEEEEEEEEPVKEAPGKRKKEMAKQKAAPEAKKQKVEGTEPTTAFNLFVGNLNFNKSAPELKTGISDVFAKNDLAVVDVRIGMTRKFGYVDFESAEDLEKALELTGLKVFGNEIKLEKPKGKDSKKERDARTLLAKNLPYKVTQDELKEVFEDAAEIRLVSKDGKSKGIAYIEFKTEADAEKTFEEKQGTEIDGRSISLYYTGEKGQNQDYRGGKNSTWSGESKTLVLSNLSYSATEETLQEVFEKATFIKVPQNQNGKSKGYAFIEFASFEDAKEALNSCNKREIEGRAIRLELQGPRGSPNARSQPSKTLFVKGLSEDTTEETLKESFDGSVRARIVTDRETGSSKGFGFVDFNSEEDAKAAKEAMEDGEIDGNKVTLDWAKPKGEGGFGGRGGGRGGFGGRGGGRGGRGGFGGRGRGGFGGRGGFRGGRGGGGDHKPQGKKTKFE

UAUUUAU
Kd (ZCCHC24): 1910 nM
Kd (LSM1): 167 nM
Kd (HNRNPD): 583 nM
Kd (LSM3): 307 nM
Kd (HNRNPDL): 2360 nM
Kd (RBM7): 81.2 nM
Kd (MSI2): 475 nM
Kd (NCL): 1770 nM
Kd (FUBP3): 241 nM
Kd (XRN1): 106 nM

AAUAAA
Kd (ZCCHC24): 207 nM
Kd (LSM1): 23.2 nM
Kd (RBM4): 344 nM
Kd (HNRNPD): 764 nM
Kd (LRPPRC): 1130 nM
Kd (LSM3): 45 nM
Kd (HNRNPDL): 152 nM
Kd (RBM7): 156 nM
Kd (MSI2): 104 nM
Kd (FUBP3): 245 nM
Kd (XRN1): 197 nM

CUGUCCU
Kd (RBM4): 131 nM
Kd (LRPPRC): 1260 nM
Kd (NCL): 86.8 nM
